How the values were obtained:
[1] = substrate: CC(=O)C1Nc2c(nc(N)[nH]c2=O)NC1(C)C; test: (§1) Activity of tetrahydrobiopterin free nNOS
[2] = substrate: C[C@H](O)[C@H](O)[C@H]1CNc2nc(N)[nH]c(=O)c2N1; test: as §1

B1: Nitric oxide synthase 1 (Homo sapiens), P29475 (protein)
chain: MEDHMFGVQQIQPNVISVRLFKRKVGGLGFLVKERVSKPPVIISDLIRGGAAEQSGLIQAGDIILAVNGRPLVDLSYDSALEVLRGIASETHVVLILRGPEGFTTHLETTFTGDGTPKTIRVTQPLGPPTKAVDLSHQPPAGKEQPLAVDGASGPGNGPQHAYDDGQEAGSLPHANGLAPRPPGQDPAKKATRVSLQGRGENNELLKEIEPVLSLLTSGSRGVKGGAPAKAEMKDMGIQVDRDLDGKSHKPLPLGVENDRVFNDLWGKGNVPVVLNNPYSEKEQPPTSGKQSPTKNGSPSKCPRFLKVKNWETEVVLTDTLHLKSTLETGCTEYICMGSIMHPSQHARRPEDVRTKGQLFPLAKEFIDQYYSSIKRFGSKAHMERLEEVNKEIDTTSTYQLKDTELIYGAKHAWRNASRCVGRIQWSKLQVFDARDCTTAHGMFNYICNHVKYATNKGNLRSAITIFPQRTDGKHDFRVWNSQLIRYAGYKQPDGSTLGDPANVQFTEICIQQGWKPPRGRFDVLPLLLQANGNDPELFQIPPELVLEVPIRHPKFEWFKDLGLKWYGLPAVSNMLLEIGGLEFSACPFSGWYMGTEIGVRDYCDNSRYNILEEVAKKMNLDMRKTSSLWKDQALVEINIAVLYSFQSDKVTIVDHHSATESFIKHMENEYRCRGGCPADWVWIVPPMSGSITPVFHQEMLNYRLTPSFEYQPDPWNTHVWKGTNGTPTKRRAIGFKKLAEAVKFSAKLMGQAMAKRVKATILYATETGKSQAYAKTLCEIFKHAFDAKVMSMEEYDIVHLEHETLVLVVTSTFGNGDPPENGEKFGCALMEMRHPNSVQEERKSYKVRFNSVSSYSDSQKSSGDGPDLRDNFESAGPLANVRFSVFGLGSRAYPHFCAFGHAVDTLLEELGGERILKMREGDELCGQEEAFRTWAKKVFKAACDVFCVGDDVNIEKANNSLISNDRSWKRNKFRLTFVAEAPELTQGLSNVHKKRVSAARLLSRQNLQSPKSSRSTIFVRLHTNGSQELQYQPGDHLGVFPGNHEDLVNALIERLEDAPPVNQMVKVELLEERNTALGVISNWTDELRLPPCTIFQAFKYYLDITTPPTPLQLQQFASLATSEKEKQRLLVLSKGLQEYEEWKWGKNPTIVEVLEEFPSIQMPATLLLTQLSLLQPRYYSISSSPDMYPDEVHLTVAIVSYRTRDGEGPIHHGVCSSWLNRIQADELVPCFVRGAPSFHLPRNPQVPCILVGPGTGIAPFRSFWQQRQFDIQHKGMNPCPMVLVFGCRQSKIDHIYREETLQAKNKGVFRELYTAYSREPDKPKKYVQDILQEQLAESVYRALKEQGGHIYVCGDVTMAADVLKAIQRIMTQQGKLSAEDAGVFISRMRDDNRYHEDIFGVTLRTYEVTNRLRSESIAFIEESKKDTDEVFSS
kcat [1]: 5.27 min⁻¹
kcat [2]: 8.19 min⁻¹
